In publication doi:10.1101/145276:

Target: T1, Mmi1 YTH domain (longer construct) (Schizosaccharomyces pombe, UniProt O74958 326-488)
T1 sequence: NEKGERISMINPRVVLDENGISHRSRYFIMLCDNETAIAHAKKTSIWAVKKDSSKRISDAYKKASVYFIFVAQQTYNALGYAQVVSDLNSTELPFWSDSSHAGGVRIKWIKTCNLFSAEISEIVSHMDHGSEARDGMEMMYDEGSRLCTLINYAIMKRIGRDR
Experiment: ITC

B1: DSR 8-mer (ssRNA)
RNA: AUUAAACA
B1: binds.
